The record followed here is PMC11385703 (Structure(London, England:1993), 2024).

Numbering of substitutions follows the chain as printed.

What all share (conditions): both partners purified
The target of assay [1] is T1, α-cobratoxin, biotinylated (Naja kaouthia, UniProt P01391, biotin (EZ-Link NHS-PEG4-Biotin, 1:1.25 toxin:biotinylation reagent molar ratio)). The assay is described as follows: BLI; […]) biosensors; […]; dissociation for 600 s in HEPES-MES pH 3.5; 25°C; 1:1 binding model, […]. Background: Biolayer interferometry detects binding as a change in optical thickness at a sensor tip.

Assay [2] has as its target T1, α-cobratoxin, biotinylated. The assay is described as follows: BLI; […]) biosensors; […]; dissociation for 600 s in HEPES-MES pH 4.0; 25°C; 1:1 binding model, […].
Assay [3] concerns the target T1, α-cobratoxin, biotinylated. The assay is described as follows: BLI; […]) biosensors; […]; dissociation for 600 s in HEPES-MES pH 4.5; 25°C; 1:1 binding model, […].
The target in assay [4] is T1, α-cobratoxin, biotinylated. The assay is described as follows: BLI; […]) biosensors; […]; dissociation for 600 s in HEPES-MES pH 5.0; 25°C; 1:1 binding model, […].
Assay [5] deals with T1, α-cobratoxin, biotinylated. The assay is described as follows: BLI; […]) biosensors; […]; dissociation for 600 s in HEPES-MES pH 5.5; 25°C; 1:1 binding model, […].
For assay [6], the target named is T1, α-cobratoxin, biotinylated. The assay is described as follows: BLI; […]) biosensors; […]; dissociation for 600 s in HEPES-MES pH 6.0; 25°C; 1:1 binding model, […].
For assay [7], the target named is T1, α-cobratoxin, biotinylated. The assay is described as follows: BLI; […]) biosensors; […]; dissociation for 600 s in HEPES-MES pH 6.5; 25°C; 1:1 binding model, […].
Assay [8] addresses T1, α-cobratoxin, biotinylated. The assay is described as follows: BLI; […]) biosensors; […]; dissociation for 600 s in HEPES-MES pH 7.4; 25°C; 1:1 binding model, […].
Assay [9] addresses T1, α-cobratoxin, biotinylated. The assay is described as follows: BLI; […]) biosensors; […]; association in HEPES-MES pH 7.4 for 300 s, dissociation in HEPES-MES pH 5.5 for 600 s; 1:1 binding model, […].
Assay [10] has as its target T1, α-cobratoxin, biotinylated. The assay is described as follows: BLI; […]) biosensors; […]; association in HEPES-MES pH 7.4 for 300 s, dissociation in HEPES-MES pH 7.4 for 600 s; 1:1 binding model, […].
A further assay deals with T2, α-cobratoxin (Naja kaouthia, UniProt P01391).
T2 construct: source: bought: Latoxan
The assay is described as follows: SPR; […] (Biacore 8K, 25°C); […]; dissociation 300 s in running buffer of pH 7.4 or 5.5.

In another assay the target is biotinylated myotoxin II (Bothrops asper, UniProt P24605, biotin (EZ-Link NHS-PEG4-Biotin, 1:1.25 toxin:reagent molar ratio)). The assay is described as follows: BLI.
In another assay the target is T3, myotoxin II (Bothrops asper, UniProt P24605).
T3 construct: source: purified from the venom of B. asper (CM-Sephadex C25, RP-HPLC)
The assay is described as follows: […] (1:20) in PBS pH 7.4 and pH 6, 1 h at room temperature.

The target of assay [11] is T4, biotinylated α-cobratoxin (Naja kaouthia, UniProt P01391).
T4 construct: source: bought: Latoxan, then biotinylated
The assay is described as follows: BLI.

T1 sequence (P01391 whole entry): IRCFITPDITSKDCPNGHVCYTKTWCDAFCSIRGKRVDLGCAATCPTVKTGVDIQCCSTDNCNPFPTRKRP
biotinylated myotoxin II, sequence (P24605 17-137): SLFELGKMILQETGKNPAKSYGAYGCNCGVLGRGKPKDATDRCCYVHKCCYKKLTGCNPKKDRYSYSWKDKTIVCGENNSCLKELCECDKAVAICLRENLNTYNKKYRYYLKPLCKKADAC
T4 sequence (P01391 whole entry): as the sequence (P01391 whole entry) above
T3 sequence (P24605 17-137): as the sequence (P24605 17-137) above

B1: TPL0197_01_C08 Fab (Fab, V domains shown)
VH: EVQLVQSGAEVKKPGASVKVSCKASGYTFTSYGISWVRQAPGQGLEWMGWISAYNGNTNYAQKLQGRVTMTTDTSTSTAYMELRSLRSDDTAVYYCAREEYCSSTSCYVGNYYGMDVWGQGTLVTVSS
VL: DIQMTQSPSSLSASVGDRVTITCQASQDISNYLNWYQQKPGKAPKLLIYAASSLESGVPSRFSGSGSGTEFTLTITNLQVDDFATYYCQRYDSNFAFGQGTKVEIK
As for B1, the koff was 1.2 s⁻¹ in [1]; 0.28 s⁻¹ in assay [2]; 0.054 s⁻¹ in assay [3]; 0.0073 s⁻¹ in assay [4]; 0.0041 s⁻¹ in assay [5]; 0.0015 s⁻¹ in [6]. Moreover, the koff in assay [7] was determined as 0.00077 s⁻¹; in [8], 0.00069 s⁻¹; in assay [9], 0.0058 s⁻¹; in [10], 0.00085 s⁻¹. Further, the kon amounted to 3800 M⁻¹ s⁻¹ in [9] and 11000 M⁻¹ s⁻¹ in [10]. For the same molecule, the dissociation constant (Kd) in assay [10] stood at 64 nM.

B2: IgG: TPL0197_01_C08-YTE (antibody, V domains shown)
VH: B1 VH
VL: B1 VL
notes: also called IgG1 C08; source: CHO cells, transiently expressed, purified; copies: 2 + 2
Take B2: in the assay with α-cobratoxin, the binding result was “binds”.

B3: IgG: TPL0039_05_E02-YTE (antibody, V domains shown)
VH: QVQLLESGGGLVQPGRSLRLSCAASGFTFSSYGLHWVRQAPGKGLEWVAVISYDGSNKYYADSVKGRFTISRDNSKNTLYLQMNSLRAEDTAVYYCASTLQQLDAFDIWGQGTLVTVSS
VL: NFMLTQPHSVSESPGKTVTISCTRSSGSIASNYVQWYQQRPGTSPTIMIYEDNQRPSGVPDRFSGAIDSSSNSASLTISGLKTEDEADYYCQSYDSSSVVFGGGTKVTVL
notes: copies: 2 + 2
With B3, in the assay with biotinylated myotoxin II, the Kd is less than 0.001 nM and the koff was less than 1e-07 s⁻¹.

B4: IgG: TPL0039_05_B12-YTE (antibody, V domains shown)
VH: EVQLVESGGGVVQPGRSLRLSCAASGFTFSSYGMHWVRQAPGKGLEWVAVISYDGSNKYYADSVKGRFTISRDNSKNTLYLQMNSLRAEDTAVYYCAGWTEGDAFDIWGQGTLVTVSS
VL: B3 VL with T43S, S44A, T46S, I47T, M48V, Q54R, A66S, S70A, V107I
notes: copies: 2 + 2
Turning to B4, the Kd with biotinylated myotoxin II is less than 0.001 nM.

B5: IgG: TPL0039_05_B04-YTE (antibody, V domains shown)
VH: B4 VH with V5L, G98R, W99V, T100G, G102N, D103E, L113M
VL: B3 VL with S31R, T43S, S44A, I47T, M48V, A66S, S98T, V107L
notes: also called IgG1 B04-YTE; source: CHO cells, transiently expressed, purified; copies: 2 + 2
B5: the “stoichiometry N” value in the assay with myotoxin II is 2 antigen per IgG1.

B6: 2554_01_D11 Fab (Fab, V domains shown)
VH: QVQLVQSGAEVKKPGSSVKVSCKASGGTFSSYAISWVRQAPGQGLEWMGGIIPIFGTANYAQKFQGRVTITADESTSTAYMELRSLRSDDTAVYYCARDNLGYCSGGSCYSDYYYYYMDVWGQGTLVTVSS
VL: NFMLTQPRSVSESPGKTVTISCTRSSGSIGSDYVHWYQQRPGSSPTTVIYEDNQRPSGVPDRFSGSIDSSSNSASLTISGLKTEDEADYYCQSYDRSNHEVVFGGGTKLTVL
B6: the koff was determined as 0.0036 s⁻¹ in assay [1]; 0.001 s⁻¹ in assay [2]; 0.00065 s⁻¹ in assay [3]; 0.00043 s⁻¹ in [4]; 0.00039 s⁻¹ in [5]; 0.0003 s⁻¹ in assay [6]. Moreover, the koff in assay [7] is 0.00027 s⁻¹; in assay [8], 0.00026 s⁻¹; in assay [9], 0.0004 s⁻¹. Further, in [9], the Kd came to 8.7 nM. In assay [9], the kon came to 46000 M⁻¹ s⁻¹.

B7: IgG: 2555_01_A01-YTE (antibody, V domains shown)
VH: B6 VH
VL: SYELTQPPSVSVAPGRTATITCEGDNIGQQIVHWYQQKPGQAPVAVISSDSDRPSGIPERFSGSNSGNTATLTISRVEAGDEADYYCQVWDSGSDHVVFGGGTKVTVL
notes: also called IgG1 A01; source: CHO cells, transiently expressed, purified; copies: 2 + 2
B7: in the assay with α-cobratoxin, the binding result was “binds”.

B8: Fab: 2554_01_D11 (Fab, V domains shown)
VH: B6 VH
VL: B6 VL
notes: also called Fab D11; source: purified
As to B8, in [11], the binding result is listed as “binds”.

B9: Fab: 2555_01_A01 (Fab, V domains shown)
VH: B6 VH
VL: B7 VL
notes: also called Fab A01; source: purified
For the molecule B9, in assay [11], the binding result is given as “binds”.

Broadly, the koff is the rate constant with which the complex falls apart. What is called kon is a measure of how fast the partners come together. As a reminder, the Kd is the free concentration of one partner at which half of the binding sites on the other are occupied at equilibrium, for simple one-to-one binding. What is called stoichiometry N is a count of units in the complex or per binding partner.
